From patent publication US20150139975A1 (published 2015) come the findings set out here.

The assay concerns the target T1, C3b (UniProt P01024 23-667; P01024 749-1663).
T1 construct: Amine-coupled to a CM5 Biacore chip in the SPR assays; in solution in the cofactor assay; also called complement C3b
Nature of the assay: SPR (Biacore), C3b amine-coupled to a CM5 chip, steady-state fit over two flow cells (1540 and 3030 RU of C3b). How it is done:
FIG. 3G—(i) and (ii)—Use of SPR to measure affinity of (i)rFH and (ii) plasma-purified FH for C3b coupled to aCM5 sensor chip (Biacore). Duplicate sensorgrams are shown for a concentration series (5.4 μM, 1.0 μM, 0.5 μM, 0.1 μM) flowed over 1540 response units of immobilised C3b. (iii) and (iv)—Plots of response units versus (iii)rFH or (iv) plasma-purified FH concentrations for two different flow cells with either 1540 RUs (lower curve in each plot) or 3030 RUs (upper curve in each plot) of C3b.

Positions count from the first letter of the chain named.

T1 sequence (P01024 23-667 limits assumed, chain 1 of 2): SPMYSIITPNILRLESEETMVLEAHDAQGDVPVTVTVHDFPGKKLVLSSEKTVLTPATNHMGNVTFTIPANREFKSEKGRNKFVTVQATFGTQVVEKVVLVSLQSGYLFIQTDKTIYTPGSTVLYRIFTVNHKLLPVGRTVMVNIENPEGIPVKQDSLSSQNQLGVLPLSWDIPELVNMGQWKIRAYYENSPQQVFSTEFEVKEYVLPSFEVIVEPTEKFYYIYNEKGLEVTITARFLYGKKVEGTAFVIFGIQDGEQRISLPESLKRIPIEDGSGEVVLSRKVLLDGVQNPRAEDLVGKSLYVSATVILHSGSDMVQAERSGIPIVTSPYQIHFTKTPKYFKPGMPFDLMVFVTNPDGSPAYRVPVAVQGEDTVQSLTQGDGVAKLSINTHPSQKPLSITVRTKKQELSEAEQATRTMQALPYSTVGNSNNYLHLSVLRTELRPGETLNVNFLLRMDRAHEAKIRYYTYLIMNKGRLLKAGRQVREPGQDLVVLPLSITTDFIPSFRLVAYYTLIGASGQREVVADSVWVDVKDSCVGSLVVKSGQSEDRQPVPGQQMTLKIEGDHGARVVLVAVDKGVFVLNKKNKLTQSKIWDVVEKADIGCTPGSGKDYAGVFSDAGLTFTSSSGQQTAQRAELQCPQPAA
T1 sequence (P01024 749-1663 limits assumed, chain 2 of 2): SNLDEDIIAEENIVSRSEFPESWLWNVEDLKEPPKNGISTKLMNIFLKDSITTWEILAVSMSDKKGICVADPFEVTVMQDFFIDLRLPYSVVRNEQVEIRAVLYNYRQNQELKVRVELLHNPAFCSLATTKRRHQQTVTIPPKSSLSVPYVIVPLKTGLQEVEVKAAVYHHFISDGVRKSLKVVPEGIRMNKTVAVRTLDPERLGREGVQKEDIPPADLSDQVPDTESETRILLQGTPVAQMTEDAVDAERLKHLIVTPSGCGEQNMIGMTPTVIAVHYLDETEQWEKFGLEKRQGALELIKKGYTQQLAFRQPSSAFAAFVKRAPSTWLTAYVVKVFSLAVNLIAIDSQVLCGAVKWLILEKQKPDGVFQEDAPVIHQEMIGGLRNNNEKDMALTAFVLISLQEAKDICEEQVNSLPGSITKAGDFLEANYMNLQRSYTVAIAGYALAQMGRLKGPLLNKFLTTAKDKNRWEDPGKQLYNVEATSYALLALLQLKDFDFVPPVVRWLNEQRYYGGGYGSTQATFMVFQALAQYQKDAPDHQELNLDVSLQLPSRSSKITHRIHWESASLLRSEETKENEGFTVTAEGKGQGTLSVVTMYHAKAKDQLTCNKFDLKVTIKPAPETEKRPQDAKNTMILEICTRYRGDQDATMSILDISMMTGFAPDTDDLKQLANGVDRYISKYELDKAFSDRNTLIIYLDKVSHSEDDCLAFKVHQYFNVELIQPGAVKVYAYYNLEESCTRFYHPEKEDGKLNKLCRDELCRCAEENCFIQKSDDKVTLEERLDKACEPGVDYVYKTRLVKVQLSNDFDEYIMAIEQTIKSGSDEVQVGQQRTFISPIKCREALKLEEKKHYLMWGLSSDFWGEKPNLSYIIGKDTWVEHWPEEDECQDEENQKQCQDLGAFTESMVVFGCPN

B1: recombinant human complement factor H (rFH) expressed from codon-optimised DNA in Pichia pastoris (other, UniProt P08603 19-1231, looked up)
chain: EDCNELPPRRNTEILTGSWSDQTYPEGTQAIYKCRPGYRSLGNIIMVCRKGEWVALNPLRKCQKRPCGHPGDTPFGTFTLTGGNVFEYGVKAVYTCNEGYQLLGEINYRECDTDGWTNDIPICEVVKCLPVTAPENGKIVSSAMEPDREYHFGQAVRFVCNSGYKIEGDEEMHCSDDGFWSKEKPKCVEISCKSPDVINGSPISQKIIYKENERFQYKCNMGYEYSERGDAVCTESGWRPLPSCEEKSCDNPYIPNGDYSPLRIKHRTGDEITYQCRNGFYPATRGNTAKCTSTGWIPAPRCTLKPCDYPDIKHGGLYHENMRRPYFPVAVGKYYSYYCDEHFETPSGSYWDHIHCTQDGWSPAVPCLRKCYFPYLENGYNQNYGRKFVQGKSIDVACHPGYALPKAQTTVTCMENGWSPTPRCIRVKTCSKSSIDIENGFISESQYTYALKEKAKYQCKLGYVTADGETSGSITCGKDGWSAQPTCIKSCDIPVFMNARTKNDFTWFKLNDTLDYECHDGYESNTGSTTGSIVCGYNGWSDLPICYERECELPKIDVHLVPDRKKDQYKVGEVLKFSCKPGFTIVGPNSVQCYHFGLSPDLPICKEQVQSCGPPPELLNGNVKEKTKEEYGHSEVVEYYCNPRFLMKGPNKIQCVDGEWTTLPVCIVEESTCGDIPELEHGWAQLSSPPYYYGDSVEFNCSESFTMIGHRSITCIHGVWTQLPQCVAIDKLKKCKSSNLIILEEHLKNKKEFDHNSNIRYRCRGKEGWIHTVCINGRWDPEVNCSMAQIQLCPPPPQIPNSHNMTTTLNYRDGEKVSVLCQENYLIQEGEEITCKDGRWQSIPLCVEKIPCSQPPQIEHGTINSSRSSQESYAHGTKLSYTCEGGFRISEENETTCYMGKWSSPPQCEGLPCKSPPEISHGVVAHMSDSYQYGEEVTYKCFEGFGIDGPAIAKCLGEKWSHPPSCIKTDCLSLPSFENAIPMGEKKDVYKAGEQVTYTCATYYKMDGASNVTCINSRWTGRPTCRDTSCVNPPTVQNAYIVSRQMSKYPSGERVRYQCRSPYEMFGDEEVMCLNGNWTEPPQCKDSTGKCGPPPPIDNGDITSFPLSVYAPASSVEYQCQNLYQLEGNKRITCRNGQWSEPPKCLHPCVISREIMENYNIALRWTAKQKLYSRTGESVEFVCKRGYRLSSRSHTLRTTCWDGKLEYPTCAKR
modifications: N-glycans removed with Endo Hf after expression
notes: mature; also called rhFH; recombinant FH
Turning to B1, the Kd – broadly, the equilibrium constant for the complex coming apart – was 1400 nM.

B2: plasma-purified human factor H (other, UniProt P08603 19-1231, looked up)
chain: B1 chain with I44V
notes: mature; Bought, plasma-derived; also called FH; plasma FH
Molecule B2 registered a Kd of 2900 nM.
